{
  "source": "paper PMC5605434",
  "about": "(Nature chemical biology, 2017)",
  "molecules": {"B1": {"name": "LbNOX (Levilactobacillus brevis ATCC 367) (protein)", "chain": "MKVTVVGCTHAGTFAIKQILAEHPDAEVTVYERNDVISFLSCGIALYLGGKVADPQGLFYSSPEELQKLGANVQMNHNVLAIDPDQKTVTVEDLTNHAQTTESYDKLVMTSGSWPIVPKIPGIDSDRVKLCKNWAHAQALIEDAKEAKRITVIGAGYIGAELAEAYSTTGHDVTLIDAMARVMPKYFDADFTDVIEQDYRDHGVQLALGETVESFTDSATGLTIKTDKNSYETDLAILCIGFRPNTDLLKGKVDMAPNGAIITDDYMRSSNPDIFAAGDSAAVHYNPTHQNAYIPLATNAVRQGILVGKNLVKPTVKYMGTQSSSGLALYDRTIVSTGLTLAAAKQQGLNAEQVIVEDNYRPEFMPSTEPVLMSLVFDPDTHRILGGALMSKYDVSQSANTLSVCIQNENTIDDLAMVDMLFQPNFDRPFNYLNILAQAAQAKVAQSVNA"}},
  "key": {"[1]": {"molecular_target": "T1, LbNOX (Levilactobacillus brevis, UniProt Q03Q85)", "T1 sequence (Q03Q85 1-450)": "B1 chain", "experiment": "X-ray crystal structure", "format": "binding", "settings": "NADH-soaked crystal; His-tag not cleaved"}, "[2]": {"molecular_target": "TPNOX (triphosphopyridine nucleotide oxidase), quintuple mutant of Lactobacillus brevis H2O-forming NADH oxidase (LbNOX) (Lactobacillus brevis)"}, "[3]": {"substrate": "NC(=O)C1=CN([C@@H]2O[C@H](COP(=O)(O)OP(=O)(O)OC[C@H]3O[C@@H](n4cnc5c(N)ncnc54)[C@H](OP(=O)(O)O)[C@@H]3O)[C@@H](O)[C@H]2O)C=CC1", "experiment": "purified protein", "settings": "50 mM NaPi, pH 7.5, 150 mM NaCl, 37 °C, O2 as co-substrate"}},
  "data": [
    {"molecule": "Cc1cc2nc3c(=O)[nH]c(=O)nc-3n(C[C@H](O)[C@H](O)[C@H](O)COP(=O)(O)OP(=O)(O)OC[C@H]3O[C@@H](n4cnc5c(N)ncnc54)[C@H](O)[C@@H]3O)c2cc1C", "note": "[FAD]", "values": [
      {"measurement": "X-ray crystal structure", "setting": "[1]", "result": "can the nicotinamide ring of NADH come into proximity of FAD"}
    ]},
    {"molecule": "TPNOX (triphosphopyridine nucleotide oxidase), quintuple mutant of Lactobacillus brevis H2O-forming NADH oxidase (LbNOX) (enzyme)", "values": [
      {"measurement": "stoichiometry N", "setting": "[2]", "result": 4}
    ]},
    {"molecule": "B1", "values": [
      {"measurement": "Km", "setting": "[3]", "result": "621 ± 124", "unit": "µM"},
      {"measurement": "kcat", "setting": "[3]", "result": "0.052 ± 0.001", "unit": "s⁻¹"},
      {"measurement": "kcat/Km", "setting": "[3]", "result": "83 ± 16", "unit": "M⁻¹ s⁻¹"}
    ]}
  ]
}
